Measured values taken from US7087420B1, “Microbial β-glucuronidase genes, gene products and uses thereof” (Cambia, priority 1997, dated 2006).
Where a chain is given by its changes, count along the chain named.

Legend:
Format in all cases: cell-based
[1] = system: plants (rice, Millin variety); assay: GUS activity of transfectants with expression vectors, plant host; parameters: key: all tested transfectants exhibit GUS activity (indicated by a +)
Procedure: (§1) A series of expression vector constructs of three different GUS genes, E. coli GUS, Staphylococcus GUS, and the AO version of codon-optimized Staphylococcus GUS, are prepared and tested for enzymatic activity in E. coli, yeast, and plants (rice, Millin variety). […] The E. coli vector contains a sequence encoding a pelB signal peptide, the yeast vectors contain a sequence encoding either an invertase or Mat alpha signal peptide, and the plant vectors contain a sequence encoding either a glycine-rich protein (GRP) or extensin signal peptide.
(§2) The GUS genes are cloned into each of these vectors using standard recombinant techniques of isolation of a GUS-gene containing fragment and ligation into an appropriately restricted vector. The recombinant vectors are then transfected into the appropriate host and transfectants are tested for GUS activity.
(§3) Moreover, similar results are obtained regardless of the presence or absence of a signal peptide.

KW1 cells = assay: Cellular localization: GUS activity in periplasm fraction, β-gal activity subtracted; conditions: percent of total activity in periplasm fraction, expressed in E. coli, β-gal background subtracted
Source text: Secretion index maybe calculated as the percentage of total GUS activity in periplasm or other extracellular environment less the percentage of total β-galactosidase activity found in the same extracellular environment.
Secretion of the enzyme may be verified by assaying for GUS activity in the extracellular environment. If the cells secreting GUS are gram-positive bacteria, yeasts, molds, plants, or other organisms with cell walls, activity may be assayed in the culture medium and in a cell extract, however, the protein may not be transported through the cell wall. Thus, if no or low activity of a secreted form of GUS is found in the culture medium, protoplasts made by osmotic shock or enzymatic digestion of the cell wall or other suitable procedure and the supernatant are assayed for GUS activity. […]
Cellular fractions (e.g., periplasm, spheroplast, supernatant, etc.) are prepared from KW1 cells transformed with pRAJa17.1 or a subfragment that contains the GUS gene and from E. coli cells that express β-glucuronidase. GUS activity and β-galactosidase (β-gal) activity is determined for each fraction. The percent of total activity in the periplasm fraction for GUS and β-gal (a non-secreted protein) are calculated; the amount of β-gal activity is considered background and thus is subtracted from the amount of β-glucuronidase activity. […]

E. coli = assay: GUS activity of transfectants with expression vectors, E. coli host; parameters: key: all tested transfectants exhibit GUS activity (indicated by a +); conditions: No SP (signal peptide)
Procedure: as §1, §2, §3

yeast = assay: GUS activity of transfectants with expression vectors, yeast host; parameters: key: all tested transfectants exhibit GUS activity (indicated by a +)
Procedure: as §1, §2, §3

KW1 = assay: X-GlcA staining of low-cysteine E. coli GUS muteins in KW1; conditions: pBS backbone in KW1, staining with X-GlcA
Source text: Single and multiple Cys muteins are constructed by site-directed mutagenesis techniques. Eight of the nine cysteine residues in E. coli GUS are changed to the corresponding residue found in human GUS based on alignment of the two protein sequences. One of the E. coli GUS cysteine residues, amino acid 463, aligns with a cysteine residue in human GUS and was not altered. The corresponding amino acids between E. coli GUS and human GUS are shown below.
The mutein GUS genes are cloned into a pBS backbone. The mutations are confirmed by diagnostic restriction site changes and by DNA sequence analysis. Recombinant vectors are transfected into KW1 and GUS activity assayed by staining with X-GlcA (5-bromo-4-chloro-3-indolyl-β-D-glucuronide).

B1: E. coli GUS: E. coli β-glucuronidase encoded by gusA, 603 amino acids, used as comparison standard (protein, UniProt P05804 1-603, looked up)
Beta-glucuronidase: MLRPVETPTREIKKLDGLWAFSLDRENCGIDQRWWESALQESRAIAVPGSFNDQFADADIRNYAGNVWYQREVFIPKGWAGQRIVLRFDAVTHYGKVWVNNQEVMEHQGGYTPFEADVTPYVIAGKSVRITVCVNNELNWQTIPPGMVITDENGKKKQSYFHDFFNYAGIHRSVMLYTTPNTWVDDITVVTHVAQDCNHASVDWQVVANGDVSVELRDADQQVVATGQGTSGTLQVVNPHLWQPGEGYLYELCVTAKSQTECDIYPLRVGIRSVAVKGEQFLINHKPFYFTGFGRHEDADLRGKGFDNVLMVHDHALMDWIGANSYRTSHYPYAEEMLDWADEHGIVVIDETAAVGFNLSLGIGFEAGNKPKELYSEEAVNGETQQAHLQAIKELIARDKNHPSVVMWSIANEPDTRPQGAREYFAPLAEATRKLDPTRPITCVNVMFCDAHTDTISDLFDVLCLNRYYGWYVQSGDLETAEKVLEKELLAWQEKLHQPIIITEYGVDTLAGLHSMYTDMWSEEYQCAWLDMYHRVFDRVSAVVGEQVWNFADFATSQGILRVGGNKKGIFTRDRKPKSAAFLLQKRWTGMNFGEKPQQGGKQ
For B1, the GUS activity ([1]; Extensin signal peptide) was “+”, the GUS activity ([1]; GRP signal peptide) was “+” and the GUS activity ([1]; No SP) was “+”. For the same molecule, the “GUS activity found in the periplasm” value (KW1 cells) was “less than 10%”, the GUS activity (E. coli) was “+” and the GUS activity (yeast; Invertase signal peptide) was “+”. The GUS activity (yeast; Mat α signal peptide) was “+” and the GUS activity (yeast; No SP) was “+”.

B2: C: E. coli GUS mutein, Cys 197 changed to Ser (protein, UniProt P05804 1-603, looked up, variant C197S)
Beta-glucuronidase: B1 Beta-glucuronidase with C197S
With B2 the GUS activity (KW1) was “Yes”.

B3: D, E: E. coli GUS mutein, Cys 253 to Glu and Cys 262 to Ser (protein, UniProt P05804 1-603, looked up, variant C253E C262S)
Beta-glucuronidase: B1 Beta-glucuronidase with C253E, C262S
With B3 the GUS activity (KW1) was “Yes”.

B4: A: E. coli GUS mutein, Cys 28 changed to Asn (protein, UniProt P05804 1-603, looked up, variant C28N)
Beta-glucuronidase: B1 Beta-glucuronidase with C28N
B4 was tested, and the GUS activity (KW1) was “Yes”.

B5: A, B, C, D, E, I: E. coli GUS mutein, Cys 28, 133, 197, 253, 262, 527 changed to Asn, Ala, Ser, Glu, Ser, Lys (protein, UniProt P05804 1-603, looked up, variant C28N C133A C197S C253E C262S C527K)
Beta-glucuronidase: B1 Beta-glucuronidase with C28N, C133A, C197S, C253E, C262S, C527K
In the case of B5, the GUS activity (KW1) is reported as “No”.

B6: C, D, E: E. coli GUS mutein, Cys 197 to Ser, Cys 253 to Glu, Cys 262 to Ser (protein, UniProt P05804 1-603, looked up, variant C197S C253E C262S)
Beta-glucuronidase: B1 Beta-glucuronidase with C197S, C253E, C262S
In the case of B6, the GUS activity (KW1) is reported as “Yes”.

B7: I: E. coli GUS mutein, Cys 527 changed to Lys (protein, UniProt P05804 1-603, looked up, variant C527K)
Beta-glucuronidase: B1 Beta-glucuronidase with C527K
In the case of B7, the GUS activity (KW1) is reported as “No”.

B8: B, C, D, E: E. coli GUS mutein, Cys 133, 197, 253, 262 changed to Ala, Ser, Glu, Ser (protein, UniProt P05804 1-603, looked up, variant C133A C197S C253E C262S)
Beta-glucuronidase: B1 Beta-glucuronidase with C133A, C197S, C253E, C262S
For B8, the GUS activity (KW1) was “Yes”.

B9: A, B, C, D, E: E. coli GUS mutein, Cys 28, 133, 197, 253, 262 changed to Asn, Ala, Ser, Glu, Ser (protein, UniProt P05804 1-603, looked up, variant C28N C133A C197S C253E C262S)
Beta-glucuronidase: B1 Beta-glucuronidase with C28N, C133A, C197S, C253E, C262S
B9 was tested, and the GUS activity (KW1) was “Yes”.

B10: B: E. coli GUS mutein, Cys 133 changed to Ala (protein, UniProt P05804 1-603, looked up, variant C133A)
Beta-glucuronidase: B1 Beta-glucuronidase with C133A
In the case of B10, the GUS activity (KW1) is reported as “Yes”.
